Experimental data taken from patent US20250361312A1 (INVOX PHARMA, published 2025).
Read-outs that look alike come from different tables or passages of the source.

Assays:
[1] = biological target: T1, mouse OX40 receptor, cell-expressed (DO11.10-mOX40) (mouse, UniProt P47741 20-272); test: cell-based or functional assay
T1 sequence: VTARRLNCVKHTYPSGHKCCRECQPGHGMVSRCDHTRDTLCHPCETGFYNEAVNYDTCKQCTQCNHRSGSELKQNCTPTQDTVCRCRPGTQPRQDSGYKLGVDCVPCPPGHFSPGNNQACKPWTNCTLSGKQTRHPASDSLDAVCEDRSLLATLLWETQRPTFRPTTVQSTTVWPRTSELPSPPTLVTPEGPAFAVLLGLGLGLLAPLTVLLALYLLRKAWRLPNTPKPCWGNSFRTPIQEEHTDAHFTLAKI

[2] = biological target: T1, mouse OX40 receptor, cell-expressed …; test: cell-based or functional assay; remark: listed apart in the source
[3] = biological target: T1, mouse OX40 receptor, cell-expressed …; test: cell-based or functional assay; remark: listed apart in the source
[4] = biological target: T1, mouse OX40 receptor, cell-expressed …; test: flow cytometry on DO11.10-mOX40 cells
Procedure: Non-specific binding was also assessed by testing for binding to HEK cells not expressing OX40 by flow cytometry.
DO11.10 mOX40 or HEK cell suspensions were prepared in PBS+2% BSA (Sigma, A7906) and seeded at 4×10⁶ cell/ml with 50 μl/well in V-bottomed 96-well plates (Costar, 3897). […] The data was fit using log (agonist) vs response in GraphPad Prism Software.

[5] = biological target: T1, mouse OX40 receptor, cell-expressed …; test: cell-based or functional assay; remark: listed apart in the source
[6] = biological target: T1, mouse OX40 receptor, cell-expressed …; test: flow cytometry, labelled antibody on DO11.10-mOX40 cells
mouse TNFRII = biological target: T2, mouse TNFRII (mouse, UniProt P25119 23-258, limits assumed); test: SPR (Biacore T200), receptor on CM5 chip
T2 construct: Amine-coupled to a CM5 chip
T2 sequence (looked up): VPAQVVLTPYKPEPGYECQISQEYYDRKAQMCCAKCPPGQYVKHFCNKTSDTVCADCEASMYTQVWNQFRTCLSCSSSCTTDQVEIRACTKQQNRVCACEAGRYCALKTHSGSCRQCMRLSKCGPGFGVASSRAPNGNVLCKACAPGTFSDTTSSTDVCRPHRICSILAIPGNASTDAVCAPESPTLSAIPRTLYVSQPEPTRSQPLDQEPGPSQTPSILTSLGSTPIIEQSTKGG

mouse TNFRI = biological target: T3, mouse TNFRI (mouse, UniProt P25118 22-212, limits assumed); test: SPR (Biacore T200), receptor on CM5 chip
T3 construct: Amine-coupled to a CM5 chip
T3 sequence (looked up): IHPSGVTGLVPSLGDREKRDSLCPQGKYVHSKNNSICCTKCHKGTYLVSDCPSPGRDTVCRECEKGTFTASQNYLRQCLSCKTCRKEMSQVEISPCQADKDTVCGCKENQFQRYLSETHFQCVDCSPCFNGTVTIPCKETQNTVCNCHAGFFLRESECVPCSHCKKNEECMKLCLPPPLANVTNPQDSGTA

mouse CD137 = biological target: T4, mouse CD137 (mouse, UniProt P20334 24-187, limits assumed); test: SPR (Biacore T200), receptor on CM5 chip
T4 construct: Amine-coupled to a CM5 chip; also called 4-1BB
T4 sequence (looked up): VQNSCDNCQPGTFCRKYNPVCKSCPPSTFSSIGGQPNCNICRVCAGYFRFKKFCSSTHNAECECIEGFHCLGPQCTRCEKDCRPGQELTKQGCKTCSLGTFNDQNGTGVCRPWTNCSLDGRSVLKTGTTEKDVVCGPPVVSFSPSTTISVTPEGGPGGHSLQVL

mouse CD40 = biological target: T5, mouse CD40 (mouse, UniProt P27512 24-193, limits assumed); test: SPR (Biacore T200), receptor on CM5 chip
T5 construct: Amine-coupled to a CM5 chip
T5 sequence (looked up): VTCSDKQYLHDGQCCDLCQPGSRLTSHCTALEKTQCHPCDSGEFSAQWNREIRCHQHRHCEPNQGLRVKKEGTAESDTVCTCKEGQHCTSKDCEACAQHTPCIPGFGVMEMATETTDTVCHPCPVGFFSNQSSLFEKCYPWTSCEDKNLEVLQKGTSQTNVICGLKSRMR

mouse NGFR = biological target: T6, mouse NGFR (mouse, UniProt Q9Z0W1 32-254, limits assumed); test: SPR (Biacore T200), receptor on CM5 chip
T6 construct: Amine-coupled to a CM5 chip
T6 sequence (looked up): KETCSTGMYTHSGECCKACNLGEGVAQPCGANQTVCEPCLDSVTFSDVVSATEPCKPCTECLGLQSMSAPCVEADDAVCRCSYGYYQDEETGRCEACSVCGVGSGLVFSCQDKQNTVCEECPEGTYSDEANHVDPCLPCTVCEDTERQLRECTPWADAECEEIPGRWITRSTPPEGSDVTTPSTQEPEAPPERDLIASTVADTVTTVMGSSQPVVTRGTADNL

B1: FS20m-232-91AA/4420 (bispecific antibody, human IgG1, kappa, L234A L235A)
heavy: EVKLDETGGGLVQPGRPMKLSCVASGFTFSDYWMNWVRQSPEKGLEWVAQIRNKPYNYETYYSDSVKGRFTISRDDSKSSVYLQMNNLRVEDMGIYYCTGSYYGMDYWGQGTSVTVSSASTKGPSVFPLAPSSKSTSGGTAALGCLVKDYFPEPVTVSWNSGALTSGVHTFPAVLQSSGLYSLSSVVTVPSSSLGTQTYICNVNHKPSNTKVDKKVEPKSCDKTHTCPPCPAPEAAGGPSVFLFPPKPKDTLMISRTPEVTCVVVDVSHEDPEVKFNWYVDGVEVHNAKTKPREEQYNSTYRVVSVLTVLHQDWLNGKEYKCKVSNKALPAPIEKTISKAKGQPREPQVYTLPPSRDELFDPMYYYNQVSLTCLVKGFYPSDIAVEWESNGEPLWDYKTTPPVLDSDGSFFLYSKLTVWRDRWEDGNVFSCSVMHEALHNHYTQKSLSLSPG
light: DVVMTQTPLSLPVSLGDQASISCRSSQSLVHSNGNTYLRWYLQKPGQSPKVLIYKVSNRFSGVPDRFSGSGSGTDFTLKISRVEAEDLGVYFCSQSTHVPWTFGGGTKLEIKRTVAAPSVFIFPPSDEQLKSGTASVVCLLNNFYPREAKVQWKVDNALQSGNSQESVTEQDSKDSTYSLSSTLTLSKADYEKHKVYACEVTHQGLSSPVTKSFNRGEC
notes: Human IgG1 with anti-FITC 4420 Fab and LALA; The mouse OX40 site is in the CH3 domain; also called mFS20-232-91AA/4420; anti-mouse OX40 Fcab FS20m-232-91 in mock (4420 LALA) mAb^2 format
[1]
  EC50 of IL-2 release, Xlink (FITC-dextran): 0.629 nM
[2]
  EC50 of IL-2 release, crosslinked (FITC-dextran): 0.67 nM
[3]
  EC50 of IL-2 release, Xlink (FITC-dextran): 0.158 nM
  EC50 of IL-2 release, no crosslinker: 76.4 nM
[4]
  EC50: 1.01 nM
[5]
  EC50 of IL-2 release, HPAC cells present, + FITCdex: 0.548 nM
  EC50 of IL-2 release, HPAC cells present, + G1/E2A + a-hFc + FITCdex: 2.09 nM

B2: antibody OX86 (Biolegend cat no 119408) (antibody, V domains shown)
VH: QVQLKESGPGLVQPSQTLSLTCTVSGFSLTGYNLHWVRQPPGKGLEWMGRMRYDGDTYYNSVLKSRLSISRDTSKNQVFLKMNSLQTDDTAIYYCTRDGRGDSFDYWGQGVMVTVSS
VL: DIVMTQGALPNPVPSGESASITCRSSQSLVYKDGQTYLNWFLQRPGQSPQLLTYWMSTRASGVSDRFSGSGSGTYFTLKISRVRAEDAGVYYCQQVREYPFTFGSGTKLEIK
[6]
  fluorescence over non-transduced cells: ≥ 10 fold

B3: FS20m-232-91AA/HEL D1.3 (bispecific antibody, human IgG1, kappa, L234A L235A, V domains shown)
VH: QVQLQESGPGLVRPSQTLSLTCTVSGSTFSGYGVNWVRQPPGRGLEWIGMIWGDGNTDYNSALKSRVTMLVDTSKNQFSLRLSSVTAADTAVYYCARERDYRLDYWGQGSLVTVSS
VL: DIQMTQSPASLSASVGETVTITCRASGNIHNYLAWYQQKQGKSPQLLVYNAKTLADGVPSRFSGSGSGTQYSLKINSLQPEDFGSYYCQHFWSTPRTFGGGTKLEIKR
notes: Human IgG1 with anti-HEL D1.3 Fab and LALA; also called FS20m-232-91 in mock (HEL D1.3 LALA) mAb^2 format; FS20m-232-91/HelD1.3 mock mAb^2 with LALA mutation
Mouse TNFRII
  binding result: no binding (tested: 1 µM)
Mouse TNFRI
  binding result: no binding (tested: 1 µM)
Mouse CD137
  binding result: no binding (tested: 1 µM)
Mouse CD40
  binding result: no binding (tested: 1 µM)
Mouse NGFR
  binding result: no binding (tested: 1 µM)
